Measurements as given in the supplement of paper PMC10567573.

B1: CDC34 (parent)
chain: GGYFKARLKFPIDYPYSPPAFRFL

Variants of: B1
Test: protein stability index of a GFP-peptide fusion (GPS, HEK-293T) (PSI 1-6); higher = more stable
Details: c terminus: a fixed tail appended
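Note: lentivirally expressed fusions sorted by FACS into six bins by GFP to DsRed ratio, PSI derived from sequencing read proportions per bin multiplied by bin number.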

In order of falling protein stability index:
1. GGYFKRRLKFPIDYPYSPPAFRFL [A6R]  3.77
2. GGYFKARGKFPIDYPYSPPAFRFL [L8G]  3.75
3. GGYFKMRLKFPIDYPYSPPAFRFL [A6M]  3.74
4. GGYFKARLLFPIDYPYSPPAFRFL [K9L]  3.67
5. GGYFKFRLKFPIDYPYSPPAFRFL [A6F]  3.63
6. GGYFVARLKFPIDYPYSPPAFRFL [K5V]  3.61
7. GGYFKARLRFPIDYPYSPPAFRFL [K9R]  3.6
8. GGYFKARLEFPIDYPYSPPAFRFL [K9E]  3.56
9. GGYFKYRLKFPIDYPYSPPAFRFL [A6Y]  3.56
10. GHYFKARLKFPIDYPYSPPAFRFL [G2H]  3.54
11. MGYFKARLKFPIDYPYSPPAFRFL [G1M]  3.53
12. GGYFKNRLKFPIDYPYSPPAFRFL [A6N]  3.51
13. GGYFFARLKFPIDYPYSPPAFRFL [K5F]  3.5
14. GGYFKARIKFPIDYPYSPPAFRFL [L8I]  3.42
15. GGYFKARLYFPIDYPYSPPAFRFL [K9Y]  3.41
16. GGYFSARLKFPIDYPYSPPAFRFL [K5S]  3.33
17. GPYFKARLKFPIDYPYSPPAFRFL [G2P]  3.31
18. GGYFKARFKFPIDYPYSPPAFRFL [L8F]  3.29
19. GTYFKARLKFPIDYPYSPPAFRFL [G2T]  3.26
20. GGYFKARLSFPIDYPYSPPAFRFL [K9S]  3.19
21. TGYFKARLKFPIDYPYSPPAFRFL [G1T]  3.19
22. IGYFKARLKFPIDYPYSPPAFRFL [G1I]  3.18
23. GGYFMARLKFPIDYPYSPPAFRFL [K5M]  3.16
24. GGYFKWRLKFPIDYPYSPPAFRFL [A6W]  3.16
25. GGYFKARLIFPIDYPYSPPAFRFL [K9I]  3.15
26. SGYFKARLKFPIDYPYSPPAFRFL [G1S]  3.14
27. GAYFKARLKFPIDYPYSPPAFRFL [G2A]  3.13
28. GGYFKGRLKFPIDYPYSPPAFRFL [A6G]  3.12
29. GGYFKARLFFPIDYPYSPPAFRFL [K9F]  3.11
30. GGYFKHRLKFPIDYPYSPPAFRFL [A6H]  3.08
31. GGYFKKRLKFPIDYPYSPPAFRFL [A6K]  3.08
32. GGYFKARLHFPIDYPYSPPAFRFL [K9H]  3.05
33. GIYFKARLKFPIDYPYSPPAFRFL [G2I]  3.05
34. GGYFQARLKFPIDYPYSPPAFRFL [K5Q]  3.03
35. GVYFKARLKFPIDYPYSPPAFRFL [G2V]  3.03
36. NGYFKARLKFPIDYPYSPPAFRFL [G1N]  3.03
37. GYYFKARLKFPIDYPYSPPAFRFL [G2Y]  3
38. GMYFKARLKFPIDYPYSPPAFRFL [G2M]  2.92
39. HGYFKARLKFPIDYPYSPPAFRFL [G1H]  2.91
40. GGYFNARLKFPIDYPYSPPAFRFL [K5N]  2.89
41. WGYFKARLKFPIDYPYSPPAFRFL [G1W]  2.88
42. KGYFKARLKFPIDYPYSPPAFRFL [G1K]  2.88
43. AGYFKARLKFPIDYPYSPPAFRFL [G1A]  2.86
44. GGYFCARLKFPIDYPYSPPAFRFL [K5C]  2.85
45. CGYFKARLKFPIDYPYSPPAFRFL [G1C]  2.8
46. GGYFEARLKFPIDYPYSPPAFRFL [K5E]  2.79
47. GQYFKARLKFPIDYPYSPPAFRFL [G2Q]  2.77
48. GGYFIARLKFPIDYPYSPPAFRFL [K5I]  2.76
49. GGYFKTRLKFPIDYPYSPPAFRFL [A6T]  2.76
50. GGYFKARLAFPIDYPYSPPAFRFL [K9A]  2.74
51. GGYFRARLKFPIDYPYSPPAFRFL [K5R]  2.71
52. GGYFTARLKFPIDYPYSPPAFRFL [K5T]  2.69
53. GNYFKARLKFPIDYPYSPPAFRFL [G2N]  2.68
54. YGYFKARLKFPIDYPYSPPAFRFL [G1Y]  2.68
55. GGYFKARLWFPIDYPYSPPAFRFL [K9W]  2.66
56. GGYFKARAKFPIDYPYSPPAFRFL [L8A]  2.66
57. GGYFDARLKFPIDYPYSPPAFRFL [K5D]  2.63
58. GGYFHARLKFPIDYPYSPPAFRFL [K5H]  2.61
59. PGYFKARLKFPIDYPYSPPAFRFL [G1P]  2.61
60. GGYFKARLPFPIDYPYSPPAFRFL [K9P]  2.57
61. GGYFKARLQFPIDYPYSPPAFRFL [K9Q]  2.55
62. FGYFKARLKFPIDYPYSPPAFRFL [G1F]  2.55
63. GGYFKARHKFPIDYPYSPPAFRFL [L8H]  2.54
64. GGYFKSRLKFPIDYPYSPPAFRFL [A6S]  2.47
65. VGYFKARLKFPIDYPYSPPAFRFL [G1V]  2.45
66. RGYFKARLKFPIDYPYSPPAFRFL [G1R]  2.45
67. GGYFKARLDFPIDYPYSPPAFRFL [K9D]  2.43
68. GGYFKARLNFPIDYPYSPPAFRFL [K9N]  2.39
69. QGYFKARLKFPIDYPYSPPAFRFL [G1Q]  2.39
70. GGYFKLRLKFPIDYPYSPPAFRFL [A6L]  2.36
71. GGYFKERLKFPIDYPYSPPAFRFL [A6E]  2.33
72. GGYFKAREKFPIDYPYSPPAFRFL [L8E]  2.3
73. GGYFKARLGFPIDYPYSPPAFRFL [K9G]  2.29
74. GDYFKARLKFPIDYPYSPPAFRFL [G2D]  2.29
75. GGYFAARLKFPIDYPYSPPAFRFL [K5A]  2.24
76. GGYFKARDKFPIDYPYSPPAFRFL [L8D]  2.24
77. GWYFKARLKFPIDYPYSPPAFRFL [G2W]  2.23
78. GCYFKARLKFPIDYPYSPPAFRFL [G2C]  2.22
79. GLYFKARLKFPIDYPYSPPAFRFL [G2L]  2.2
80. GSYFKARLKFPIDYPYSPPAFRFL [G2S]  2.18
81. GGYFKVRLKFPIDYPYSPPAFRFL [A6V]  2.15
82. GGYFKPRLKFPIDYPYSPPAFRFL [A6P]  2.13
83. GGYFKARLTFPIDYPYSPPAFRFL [K9T]  2.11
84. GGYFKDRLKFPIDYPYSPPAFRFL [A6D]  2.1
85. GFYFKARLKFPIDYPYSPPAFRFL [G2F]  2.03
86. GGYFPARLKFPIDYPYSPPAFRFL [K5P]  1.98
87. GEYFKARLKFPIDYPYSPPAFRFL [G2E]  1.94
88. GGYFKIRLKFPIDYPYSPPAFRFL [A6I]  1.94
89. DGYFKARLKFPIDYPYSPPAFRFL [G1D]  1.94
90. GKYFKARLKFPIDYPYSPPAFRFL [G2K]  1.9
91. GGYFKARLMFPIDYPYSPPAFRFL [K9M]  1.82
92. GGYFKQRLKFPIDYPYSPPAFRFL [A6Q]  1.71
93. EGYFKARLKFPIDYPYSPPAFRFL [G1E]  1.58
94. GGYFKARRKFPIDYPYSPPAFRFL [L8R]  1.25
